Source: the Human Domainome abundance scans (Beltran et al. 2025)
± gives the uncertainty stated by the source.

B1: POU domain, class 6, transcription factor 2, residues 609 to 663; numbered along this chain, P78424 (parent)
chain: KRRTSFTPQALEILNAHFEKNTHPSGQEMTEIAEKLNYDREVVRVWFCNKRQALK

Variants of: B1
Assay: abundance fitness (aPCA) (normalised: wild type 0, dead -1); higher = more abundant; growth selection in yeast, the domain comes from the species named
Conditions: Homo sapiens

Question: For KRRTSFTPQALEILNAHNEKNTHPSGQEMTEIAEKLNYDREVVRVWFCNKRQALK, which abundance fitness is on record?
Answer: -1.06 ± 0.26

Question: With KRRTSFTPQALEILNAHFEKNTHPSGQEMTEIAGKLNYDREVVRVWFCNKRQALK as the variant, how does the abundance fitness read?
Answer: -0.347 ± 0.18

Question: For KRRTSFTPQALEILNAHFEKNTHPSGQEMTEIAEKLNYDREVVRVWFCNKRYALK, which abundance fitness is on record?
Answer: -0.339 ± 0.15

Question: Which abundance fitness does the source give for KRRTSFTPQALEILNAHFEKNTHPSGQEMTEIAEKLNYDREVVRVWFCNKRPALK here?
Answer: -0.218 ± 0.098

Question: Which abundance fitness does the source give for DRRTSFTPQALEILNAHFEKNTHPSGQEMTEIAEKLNYDREVVRVWFCNKRQALK here?
Answer: -0.161 ± 0.15

Question: Which abundance fitness does the source give for WRRTSFTPQALEILNAHFEKNTHPSGQEMTEIAEKLNYDREVVRVWFCNKRQALK here?
Answer: -0.267 ± 0.16

Question: With KRRTSFTPQALEILNAHFEKNTHPSNQEMTEIAEKLNYDREVVRVWFCNKRQALK as the variant, how does the abundance fitness read?
Answer: -0.041 ± 0.46

Question: Which abundance fitness does the source give for KRRTSFTPQELEILNAHFEKNTHPSGQEMTEIAEKLNYDREVVRVWFCNKRQALK here?
Answer: 0.062 ± 0.14

Question: Which abundance fitness does the source give for KRRTSFTPPALEILNAHFEKNTHPSGQEMTEIAEKLNYDREVVRVWFCNKRQALK here?
Answer: -0.028 ± 0.15

Question: For KRRTSFTPQALEILNAHFEKNTHPSGQEMTEIAEKLNRDREVVRVWFCNKRQALK, which abundance fitness is on record?
Answer: -0.024 ± 0.05

Question: For KRRTSFTPQALEILNAHFEKNTHPSGQEMTEIAEKLNHDREVVRVWFCNKRQALK, which abundance fitness is on record?
Answer: -0.176 ± 0.1

Question: For KRRTSFTPQALEILNAHFEKNTHPSGQEMTEIAEKLNTDREVVRVWFCNKRQALK, which abundance fitness is on record?
Answer: 0.072 ± 0.07

Question: Which abundance fitness does the source give for KRRTSFTPQALEILNAHFEKNTHPSGQEMTEIREKLNYDREVVRVWFCNKRQALK here?
Answer: -0.809 ± 0.27

Question: Which abundance fitness does the source give for KRRTSFTPQALEILNAHFEKNTHPSGQEMTEISEKLNYDREVVRVWFCNKRQALK here?
Answer: -0.118 ± 0.46

Question: Which abundance fitness does the source give for KRRTSFTPQALEILNAHFEKNTHPEGQEMTEIAEKLNYDREVVRVWFCNKRQALK here?
Answer: -0.383 ± 0.2

Question: With KRRTSFTPQALEILNAHFEKNTHPSGQEMTEIAEKLNYDRMVVRVWFCNKRQALK as the variant, how does the abundance fitness read?
Answer: -0.42 ± 0.12

Question: For KRRTSFTPQALEILNAHFEKNTHPSGQEMTEIAEKLNYDRNVVRVWFCNKRQALK, which abundance fitness is on record?
Answer: -0.185 ± 0.23

Question: For KRRTSFTPQALEILNAHFEKNTHPSGQEMTEIAEKLNYDRRVVRVWFCNKRQALK, which abundance fitness is on record?
Answer: -0.107 ± 0.067

Question: For KRRTSFTPQALEILNAHFEKNTHPSGQEMTEIAEKLNYDRAVVRVWFCNKRQALK, which abundance fitness is on record?
Answer: -0.218 ± 0.066

Question: Which abundance fitness does the source give for KRRTSFTPQALEILNAHFEKNTHPSGQEMTEIAEKLNYDREVVRVWQCNKRQALK here?
Answer: -0.807 ± 0.12

Question: Which abundance fitness does the source give for KRRTSFTPQALEILNAHFEKNTHPSGQEMTEIAEKLNYDREVVRVWRCNKRQALK here?
Answer: -0.949 ± 0.06

Question: Which abundance fitness does the source give for KRRTSFTPQALEILNAHFEKNTHPSGQAMTEIAEKLNYDREVVRVWFCNKRQALK here?
Answer: -0.157 ± 0.14

Question: With KRRTSFTPQALEILNAHFEKNTHPSGQPMTEIAEKLNYDREVVRVWFCNKRQALK as the variant, how does the abundance fitness read?
Answer: -0.998 ± 0.27

Question: With KRRTSFTPQALEILNAHFEKNTHPSGQGMTEIAEKLNYDREVVRVWFCNKRQALK as the variant, how does the abundance fitness read?
Answer: -0.592 ± 0.087

Question: For KRRTSFTPQALEILNAHFEKNTHPSGQEMTEIAEKLNYDREPVRVWFCNKRQALK, which abundance fitness is on record?
Answer: 0.019 ± 0.15

Question: Which abundance fitness does the source give for KRRTSFTPQALEILNAHFEKNTHPSGQEMTEIAEKLNYDREKVRVWFCNKRQALK here?
Answer: 0.066 ± 0.11

Question: Which abundance fitness does the source give for KRRTSFTPQALEILNAHFEKNTHPSGQEMTEIAEKLNYDREQVRVWFCNKRQALK here?
Answer: -0.124 ± 0.14

Question: Which abundance fitness does the source give for KRRTSFTPQALEILNAHFEKNTHPSGQEMTEIAEKLNYDREIVRVWFCNKRQALK here?
Answer: -0.117 ± 0.13

Question: For KRRTSFTPQALEILNAHFEKNTHPSGQEMTEIAEKLNYDRETVRVWFCNKRQALK, which abundance fitness is on record?
Answer: 0.002 ± 0.12

Question: For KRRTSFTPQALEILNAHFCKNTHPSGQEMTEIAEKLNYDREVVRVWFCNKRQALK, which abundance fitness is on record?
Answer: -0.085 ± 0.095

Question: Which abundance fitness does the source give for KRRTSFTPQALEILNAHFNKNTHPSGQEMTEIAEKLNYDREVVRVWFCNKRQALK here?
Answer: -0.07 ± 0.15

Question: Which abundance fitness does the source give for KRRTSFTPQALEILNAHFQKNTHPSGQEMTEIAEKLNYDREVVRVWFCNKRQALK here?
Answer: -0.391 ± 0.18

Question: Which abundance fitness does the source give for KRRTSFTPQALEILNAHFGKNTHPSGQEMTEIAEKLNYDREVVRVWFCNKRQALK here?
Answer: -0.148 ± 0.056

Question: With KRRTSFTPQALEILNAHFSKNTHPSGQEMTEIAEKLNYDREVVRVWFCNKRQALK as the variant, how does the abundance fitness read?
Answer: 0.073 ± 0.072

Question: For KRRTSFTPQALEILNAHFEKNWHPSGQEMTEIAEKLNYDREVVRVWFCNKRQALK, which abundance fitness is on record?
Answer: -0.176 ± 0.073

Question: For KRRTSFTPQALEILNAHFEKNTHPSGQEMTDIAEKLNYDREVVRVWFCNKRQALK, which abundance fitness is on record?
Answer: -0.077 ± 0.22

Question: For KRRTSFTPQALEILNAHFEKNTHPSGQEMTPIAEKLNYDREVVRVWFCNKRQALK, which abundance fitness is on record?
Answer: -0.516 ± 0.3

Question: With KRRTSFTPQALEILNAHFEKNTHPSGQEMTESAEKLNYDREVVRVWFCNKRQALK as the variant, how does the abundance fitness read?
Answer: -1.07 ± 0.26

Question: Which abundance fitness does the source give for KRRASFTPQALEILNAHFEKNTHPSGQEMTEIAEKLNYDREVVRVWFCNKRQALK here?
Answer: -0.09 ± 0.079

Question: With KRRMSFTPQALEILNAHFEKNTHPSGQEMTEIAEKLNYDREVVRVWFCNKRQALK as the variant, how does the abundance fitness read?
Answer: -0.148 ± 0.16

Question: With KRRKSFTPQALEILNAHFEKNTHPSGQEMTEIAEKLNYDREVVRVWFCNKRQALK as the variant, how does the abundance fitness read?
Answer: -0.123 ± 0.15

Question: With KRRTSFTFQALEILNAHFEKNTHPSGQEMTEIAEKLNYDREVVRVWFCNKRQALK as the variant, how does the abundance fitness read?
Answer: -0.147 ± 0.21

Question: For KRRTSFTYQALEILNAHFEKNTHPSGQEMTEIAEKLNYDREVVRVWFCNKRQALK, which abundance fitness is on record?
Answer: -0.572 ± 0.28

Question: With KRRTSFTKQALEILNAHFEKNTHPSGQEMTEIAEKLNYDREVVRVWFCNKRQALK as the variant, how does the abundance fitness read?
Answer: -0.138 ± 0.2

Question: For KRRTSFTHQALEILNAHFEKNTHPSGQEMTEIAEKLNYDREVVRVWFCNKRQALK, which abundance fitness is on record?
Answer: -0.177 ± 0.33

Question: With KRKTSFTPQALEILNAHFEKNTHPSGQEMTEIAEKLNYDREVVRVWFCNKRQALK as the variant, how does the abundance fitness read?
Answer: -0.009 ± 0.14

Question: For KRRTSFTPQALEILNAHFEMNTHPSGQEMTEIAEKLNYDREVVRVWFCNKRQALK, which abundance fitness is on record?
Answer: -0.02 ± 0.13

Question: With KRRTSFTPQALEILNAHFEPNTHPSGQEMTEIAEKLNYDREVVRVWFCNKRQALK as the variant, how does the abundance fitness read?
Answer: -0.936 ± 0.16
